Assay: label from the status in PepcDB records

| Sequence | protein production |
| --- | --- |
| MSQTLFWIAAACALAYLAMTARPASLMRSAVKTASVALLALMVLVSGGPVLLVLALALCALGDWLLSRETEATFMAGVGAFAAGHLAYVALFLTHPASDTGQLAAQWPLVAGLAALGLVMASLLAPRAGDLKGPVLAYVPIILGMGLAALTLPQAGVLAWVLPAAAAFIASDMILATEKFLLPPGHPALRLTPYLVWPLYWGAQMGFALALT | failed |
| MLFEGLPCLAVWCKNRLSAVLPVGGLNVSENLLEIETHPFDPVLPPKAAVMMMGTFPPKEDKRAMQFHYPNFQNDMWRVYGLVFFNDAAHFQRLSEKAFDAEKIKAFLHERGIASCPTVLKAVRQHGNASDKFLKVVETVDLAAVLAKIPECRHICTTGGKATEILLDIQGGGIKMPKTGETVPFPFAGRDLTLTRLPSTSRAYPLSLAKKAAAYRAFFEMAGLCEKQLLEHHHHHH | failed |
| MEKEKKEGWAHPEAAEKYAQTADIIIPERKEILSIISKAAIDLGPMDPKIIDLGCGLGDVTAEILKLKLQADVLMIDFSDEMIRRSSERFRDNKNITVVKRDLNQGILDITEDRGFDAVVSCFSIHHVEFENRIKLYSDIRKLLKEQGLFINGDLFREDSPAIDQWEFNNRIFSLMIQLKEKLGQEWTFEELKLNRLENSQKMGDKPGTIWETFHDMKAAGFRHVDCLWKSRNLAIMAATKP | failed |
| MSTDSPLRTTASTCCYCGVGCGVLIEHDGERILGVQGDPRHPANFGRLCSKGASLHLTGDLQARALYPQLRLGKQLARARSDWESALEHAAGRFAETIREHGPDSVAFYISGQLLTEDYYAFNKLARALVGTNNIDSNSRLCMSSAVVGYKRSLGADAPPCSYEDLDCADCVLIAGSNMAFAHPVLFRRLEAAKAARPEMRIVVIDPRRTDTCELADLHLALLPGTDVALFHGILHILLWEDWIDRSFIAEHTEGFADLKELVRDYTPAAVADICGIDRADLQRCAEWIGRSPRFLSLWCMGLNQSSAGSAKNSALINLHLATGKIGRAGCGPFSLTGQPNAMGGRETGSLANLLPGHREAADPGHRAEVAHYWGVEQLPTSPGLSAIELFDAVHDGRIKALWIACTNPAQSLPDQRKIHEALARCPFVVVQEAFAGTETCQYADLLLPAASWGEKEGSVTNSERRISHVRRAVPPPGEARQDWNIVCDFARRLEGHLRPAKPGLFAFADSRSLFDEYKLLTAGRDLDLSGLSYALLDRLGPQQWPFPTGAEQGTARLYADGRFPTASGRAQLVAEPYRAAQEKRDARYPLTLNTGRLRDQWHGMSRTGTCARLFGHEEEALVHLHPEELRRRQLLDGQLVRLKSRRGALVLPVSADDSVRPGQAFLPMHWGDRFLKGLGCNVLTLPAFDPLSKQPELKHAGVQVESVELPWRLFALVETDIQARFEALRALCEVFDHASFSLAGRERPALLVSAAHHEAPGADLLERIDRQLELLDGPILAYDDPRRAIGKRVRLEDGRIVAVRLAGETLARDWLKELWLTGRADSELRRWLLAPLGAAPGRPSQGAGGKTLCSCQNVSQQTVLGGIARGLDLDGLKREFGCGTGCGSCVPEIKRLLAAP | failed |
| MERSIGFGQALKLFWKNYVNFKGRSRRSEYWFMALWNIIFMMPALILYIIGLIMTVSGAASSSEELVAIGVILLFLSICYALIYSLATLIPGWALLIRRFHDTGRTMLMPLIYLGVIVISYPVLFVVNIQDPEYNNPVYIIFFAIIFLVYIALGIYMLVICCLDSERKTNKYGASHKYGNHIKSSTNTYANQDAPIHEDTNVKHVNSEENAFSEEVNTSDENATKKDDNFKY | failed |
| MSAIDRGSGSSMEEPERPEGPLADADGRESVTDHQDTTAADTPEDATTGSAARSETGAAPDTAQAASAPSAAAAPASEPAASAAEQRDASHEAPAPGSRETPPHPAPRPAPFAPQSHAPHPAWGPPAPDQATARHGAQAYPGPEAPQPAPGRPGPPPAGGVPAGAAQGAWQERPAQHDQPNSPTGAWAVPPSPGGFFPPTGGFPTLHGSSPFEGAPPPGKPQRSGRVVLIAAVTALITSLIVGPAASVATAYFLSEQVAANPAATSAASGDVTKVAAKALPSVVSIATAEGGGSGFIIRDDGLIVTNNHVVSDAQELTVLFHDGSQASATIVGTDPVSDLAVIRAQGVSGLTPASLGDSDQVEVGAEVVAIGAPLGLSGTVTSGVVSAVERPVNTGVSGQQDSPLLPSPDEEEPQATTSTVIDAIQTDAPINPGNSGGPLVNMNGEVIGINTAIATTSGNFMSQSGSIGLGFAIPINQAKPIIEELINTGKATYAAIEASVTVAEDGPGAELVEVNRGGAADQAGLRKGDVIIRIEDRMVTDPNVLIAEIRSHRPGDTVTITYQRGGQTAQTTVTLAAQSLDN | failed |

— a protein production outcome set (Wang et al. 2014)
